7 molecules from patent US20210388053A1 can be followed below.

For assay [1], the target named is canine FcRn/B2M protein complex (canine FcRn ECD with C-terminal poly-His tag and canine Beta-2-Microglobulin) (canine). Nature of the assay: SPR Biacore T200, pH 6.0; biotinylated FcRn/B2M captured on streptavidin, antibody 2.5-160 nM as analyte, kinetic fit.
Assay [2] has the same target. Nature of the assay: SPR Biacore T200, pH 6.0; biotinylated FcRn/B2M captured on streptavidin, antibody 12.5-800 nM, steady state analysis.
For assay [3] the target is unchanged. Kind of assay: SPR Biacore T200, pH 6.0; biotinylated FcRn/B2M captured on streptavidin, antibody 1.5625-100 nM as analyte, kinetic fit.
Assay [4] shares this target. Nature of the assay: SPR Biacore T200, pH 6.0; biotinylated FcRn/B2M captured on streptavidin, antibody 18.75-1200 nM, steady state analysis.
The target is the same in assay [5]. Kind of assay: SPR Biacore T200, pH 6.0; biotinylated FcRn/B2M immobilized, Fc as analyte.
The target is the same in assay [6]. Kind of assay: SPR Biacore T200 steady state, pH 6.0, 25 C; Fc on CM5 chip, FcRn/B2M 12.5-200 nM.
For assay [7] the target is unchanged. Kind of assay: SPR Biacore 8K, pH 6.0, 25 C; Fc captured by SASA tag on BSA chip, FcRn/B2M 400 nM as analyte.
Assay [8] shares this target. Nature of the assay: SPR Biacore 8K, pH 6.0, 25 C; Fc captured by SASA tag on BSA chip, FcRn/B2M 400 nM as analyte; dissociation exceeded the detection limit.

Sequence of canine FcRn/B2M protein complex (canine FcRn ECD with C-terminal poly-His tag and canine Beta-2-Microglobulin) (canine) (chain, as listed by the source limits assumed, form in doubt, chain 1 of 2): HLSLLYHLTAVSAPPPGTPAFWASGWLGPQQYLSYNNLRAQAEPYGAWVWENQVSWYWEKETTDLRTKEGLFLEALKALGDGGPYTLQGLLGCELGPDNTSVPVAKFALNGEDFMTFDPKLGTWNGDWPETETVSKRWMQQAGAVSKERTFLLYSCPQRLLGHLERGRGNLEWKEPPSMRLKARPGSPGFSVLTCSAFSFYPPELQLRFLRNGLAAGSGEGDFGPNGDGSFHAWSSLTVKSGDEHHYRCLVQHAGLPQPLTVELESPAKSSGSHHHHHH
Sequence of canine FcRn/B2M protein complex (canine FcRn ECD with C-terminal poly-His tag and canine Beta-2-Microglobulin) (canine) (b2m, as listed by the source limits assumed, form in doubt, chain 2 of 2): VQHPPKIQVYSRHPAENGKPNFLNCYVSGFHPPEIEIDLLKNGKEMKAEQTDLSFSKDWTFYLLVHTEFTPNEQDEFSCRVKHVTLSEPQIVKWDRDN

B1: caninized anti-canine IL31 clone M14 antibody with Y0Y variant canine IgG-B Fc polypeptide (antibody)
heavy: EVQLVESGPSLVKPGGSLRLTCSVTGDSITSGYWNWIRKFPGNKLEYMGYISYSGITDYNPSLKSRITISRDTSKNQYYLQLNSVTTEDTATYYCARYGNYGYAMDYWGQGTLVTVSSASTTAPSVFPLAPSCGSTSGSTVALACLVSGYFPEPVTVSWNSGSLTSGVHTFPSVLQSSGLYSLSSMVTVPSSRWPSETFTCNVAHPASKTKVDKPVPKRENGRVPRPPDCPKCPAPEMLGGPSVFIFPPKPKDTLYIARTPEVTCVVVDLDPEDPEVQISWFVDGKQMQTAKTQPREEQFNGTYRVVSVLPIGHQDWLKGKQFTCKVNNKALPSPIERTISKARGQAHQPSVYVLPPSREELSKNTVSLTCLIKDFFPPDIDVEWQSNGQQEPESKYRTTPPQLDEDGSYFLYSKLSVDKSRWQRGDTFICAVMHEALHYHYTQESLSHSPGK
light: DIVMTQSPASLSVSLGQRATISCRASESVDTYGNSFMHWYQQKPGQSPKLLIYRASNLESGIPARFGGSGSGTDFTLTIDPVQADDVATYYCQQSYEDPWTFGGGTKLEIKRNDAQPAVYLFQPSPDQLHTGSASVVCLLNSFYPKDINVKWKVDGVIQDTGIQESVTEQDKDSTYSLSSTLTMSSTEYLSHELYSCEITHKSLPSTLIKSFQRSECQRVD
In assay [1], B1 displayed a Kd of 15.6 nM, a koff of 0.00262 s⁻¹ and a kon of 168000 M⁻¹ s⁻¹.

B2: caninized anti-canine IL31 clone M14 antibody with YTE variant canine IgG-B Fc polypeptide (antibody)
heavy: EVQLVESGPSLVKPGGSLRLTCSVTGDSITSGYWNWIRKFPGNKLEYMGYISYSGITDYNPSLKSRITISRDTSKNQYYLQLNSVTTEDTATYYCARYGNYGYAMDYWGQGTLVTVSSASTTAPSVFPLAPSCGSTSGSTVALACLVSGYFPEPVTVSWNSGSLTSGVHTFPSVLQSSGLYSLSSMVTVPSSRWPSETFTCNVAHPASKTKVDKPVPKRENGRVPRPPDCPKCPAPEMLGGPSVFIFPPKPKDTLYITREPEVTCVVVDLDPEDPEVQISWFVDGKQMQTAKTQPREEQFNGTYRVVSVLPIGHQDWLKGKQFTCKVNNKALPSPIERTISKARGQAHQPSVYVLPPSREELSKNTVSLTCLIKDFFPPDIDVEWQSNGQQEPESKYRTTPPQLDEDGSYFLYSKLSVDKSRWQRGDTFICAVMHEALHNHYTQESLSHSPGK
light: DIVMTQSPASLSVSLGQRATISCRASESVDTYGNSFMHWYQQKPGQSPKLLIYRASNLESGIPARFGGSGSGTDFTLTIDPVQADDVATYYCQQSYEDPWTFGGGTKLEIKRNDAQPAVYLFQPSPDQLHTGSASVVCLLNSFYPKDINVKWKVDGVIQDTGIQESVTEQDKDSTYSLSSTLTMSSTEYLSHELYSCEITHKSLPSTLIKSFQRSECQRVD
With B2, in assay [2], the Kd is 231 nM.

B3: caninized anti-canine IL31 clone M14 antibody with YYY variant canine IgG-B Fc polypeptide (antibody)
heavy: EVQLVESGPSLVKPGGSLRLTCSVTGDSITSGYWNWIRKFPGNKLEYMGYISYSGITDYNPSLKSRITISRDTSKNQYYLQLNSVTTEDTATYYCARYGNYGYAMDYWGQGTLVTVSSASTTAPSVFPLAPSCGSTSGSTVALACLVSGYFPEPVTVSWNSGSLTSGVHTFPSVLQSSGLYSLSSMVTVPSSRWPSETFTCNVAHPASKTKVDKPVPKRENGRVPRPPDCPKCPAPEMLGGPSVFIFPPKPKDTLYIARTPEVTCVVVDLDPEDPEVQISWFVDGKQMQTAKTQPREEQFNGTYRVVSVLPIGHYDWLKGKQFTCKVNNKALPSPIERTISKARGQAHQPSVYVLPPSREELSKNTVSLTCLIKDFFPPDIDVEWQSNGQQEPESKYRTTPPQLDEDGSYFLYSKLSVDKSRWQRGDTFICAVMHEALHYHYTQESLSHSPGK
light: DIVMTQSPASLSVSLGQRATISCRASESVDTYGNSFMHWYQQKPGQSPKLLIYRASNLESGIPARFGGSGSGTDFTLTIDPVQADDVATYYCQQSYEDPWTFGGGTKLEIKRNDAQPAVYLFQPSPDQLHTGSASVVCLLNSFYPKDINVKWKVDGVIQDTGIQESVTEQDKDSTYSLSSTLTMSSTEYLSHELYSCEITHKSLPSTLIKSFQRSECQRVD
In assay [3], B3 registered a Kd of 3.84 nM, a koff of 0.000869 s⁻¹ and a kon of 227000 M⁻¹ s⁻¹.

B4: caninized anti-canine IL31 clone M14 antibody with wild-type canine IgG-B Fc polypeptide (antibody)
heavy: EVQLVESGPSLVKPGGSLRLTCSVTGDSITSGYWNWIRKFPGNKLEYMGYISYSGITDYNPSLKSRITISRDTSKNQYYLQLNSVTTEDTATYYCARYGNYGYAMDYWGQGTLVTVSSASTTAPSVFPLAPSCGSTSGSTVALACLVSGYFPEPVTVSWNSGSLTSGVHTFPSVLQSSGLYSLSSMVTVPSSRWPSETFTCNVAHPASKTKVDKPVPKRENGRVPRPPDCPKCPAPEMLGGPSVFIFPPKPKDTLLIARTPEVTCVVVDLDPEDPEVQISWFVDGKQMQTAKTQPREEQFNGTYRVVSVLPIGHQDWLKGKQFTCKVNNKALPSPIERTISKARGQAHQPSVYVLPPSREELSKNTVSLTCLIKDFFPPDIDVEWQSNGQQEPESKYRTTPPQLDEDGSYFLYSKLSVDKSRWQRGDTFICAVMHEALHNHYTQESLSHSPGK
light: DIVMTQSPASLSVSLGQRATISCRASESVDTYGNSFMHWYQQKPGQSPKLLIYRASNLESGIPARFGGSGSGTDFTLTIDPVQADDVATYYCQQSYEDPWTFGGGTKLEIKRNDAQPAVYLFQPSPDQLHTGSASVVCLLNSFYPKDINVKWKVDGVIQDTGIQESVTEQDKDSTYSLSSTLTMSSTEYLSHELYSCEITHKSLPSTLIKSFQRSECQRVD
In turn, B4 returned a Kd in assay [4] of 410 nM. That is a sub-micromolar value.

B5: wild-type canine IgG-B Fc polypeptide (protein, not shown: small tags and cut ends)
chain: CPAPEMLGGPSVFIFPPKPKDTLLIARTPEVTCVVVDLDPEDPEVQISWFVDGKQMQTAKTQPREEQFNGTYRVVSVLPIGHQDWLKGKQFTCKVNNKALPSPIERTISKARGQAHQPSVYVLPPSREELSKNTVSLTCLIKDFFPPDIDVEWQSNGQQEPESKYRTTPPQLDEDGSYFLYSKLSVDKSRWQRGDTFICAVMHEALHNHYTQESLSHSPGK
B5: the koff in assay [5] was 0.122 s⁻¹; in assay [7] it was 0.0856 s⁻¹. In addition, the Kd turned out to be 1250 nM in assay [6] and 102 nM in assay [7]. Further, the on-rate constant (kon) in assay [7] was found to be 838000 M⁻¹ s⁻¹.

B6: variant canine IgG-B Fc polypeptide YYF (Leu24Tyr, Gln83Tyr, Asn208Phe) (protein, not shown: small tags and cut ends)
chain: CPAPEMLGGPSVFIFPPKPKDTLYIARTPEVTCVVVDLDPEDPEVQISWFVDGKQMQTAKTQPREEQFNGTYRVVSVLPIGHYDWLKGKQFTCKVNNKALPSPIERTISKARGQAHQPSVYVLPPSREELSKNTVSLTCLIKDFFPPDIDVEWQSNGQQEPESKYRTTPPQLDEDGSYFLYSKLSVDKSRWQRGDTFICAVMHEALHFHYTQESLSHSPGK
B6 yielded a kon in assay [7] of 271000 M⁻¹ s⁻¹. In assay [8], this molecule displayed a Kd of 0.000602 nM and a koff of 1.63e-07 s⁻¹.

B7: variant canine IgG-B Fc polypeptide YYY (Leu24Tyr, Gln83Tyr, Asn208Tyr) (protein, not shown: small tags and cut ends)
chain: CPAPEMLGGPSVFIFPPKPKDTLYIARTPEVTCVVVDLDPEDPEVQISWFVDGKQMQTAKTQPREEQFNGTYRVVSVLPIGHYDWLKGKQFTCKVNNKALPSPIERTISKARGQAHQPSVYVLPPSREELSKNTVSLTCLIKDFFPPDIDVEWQSNGQQEPESKYRTTPPQLDEDGSYFLYSKLSVDKSRWQRGDTFICAVMHEALHYHYTQESLSHSPGK
B7 showed a kon in assay [7] of 262000 M⁻¹ s⁻¹. In assay [8], this molecule returned a Kd of 0.000713 nM and a koff of 1.87e-07 s⁻¹.
